Assay results from patent US20170281792A1 (Genentech, published 2017).

What was measured:
[1] = biological target: T1, gD epitope-tagged rat mesothelin expressed on cells (rat, UniProt Q9ERA7 298-582); test: Scatchard analysis on BJAB cells stably expressing gD-tagged rat mesothelin
T1 sequence: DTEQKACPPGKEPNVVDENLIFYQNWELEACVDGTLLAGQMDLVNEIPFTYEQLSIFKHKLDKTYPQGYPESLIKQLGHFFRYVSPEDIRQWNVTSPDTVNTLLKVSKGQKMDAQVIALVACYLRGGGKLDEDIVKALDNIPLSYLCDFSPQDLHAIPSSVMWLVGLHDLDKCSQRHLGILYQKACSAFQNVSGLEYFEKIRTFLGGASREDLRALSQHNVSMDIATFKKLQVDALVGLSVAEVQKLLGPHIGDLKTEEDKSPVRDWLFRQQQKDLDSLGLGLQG

[2] = biological target: T2, gD epitope-tagged cynomolgus monkey mesothelin expressed on cells (construct #383) (cynomolgus monkey); test: Scatchard analysis on BJAB cells stably expressing gD-tagged cyno mesothelin
T2 construct: also called cyno mesothelin
T2 chain: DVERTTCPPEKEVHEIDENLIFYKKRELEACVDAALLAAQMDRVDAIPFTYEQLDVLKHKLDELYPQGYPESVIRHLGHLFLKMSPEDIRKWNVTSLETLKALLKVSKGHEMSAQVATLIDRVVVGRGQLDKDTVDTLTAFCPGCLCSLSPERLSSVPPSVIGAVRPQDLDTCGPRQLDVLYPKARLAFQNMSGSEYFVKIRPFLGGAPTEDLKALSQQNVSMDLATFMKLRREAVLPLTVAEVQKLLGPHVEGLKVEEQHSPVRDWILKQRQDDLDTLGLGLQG

[3] = biological target: T3, human mesothelin on cells (endogenous on tumour cell lines and tissue, or stably expressed on A431 or HT1080 … (human, UniProt Q13421 296-580)); test: Scatchard analysis (125I-labelled antibody) on OvCar3x2.1 cells, endogenous mesothelin
T3 construct: also called endogenous mesothelin; endogenous human mesothelin
Experimental: (§1) The data was analyzed with non-linear regression curve fitting in the New Ligand program (Genentech, Inc., South San Francisco, Calif.) to estimate Kd values (Munson et al., Anal. Biochem., 107 220-239 (1980)).

[4] = biological target: T4, endogenous rat mesothelin on the normal pleural cell line 4/4-RM4 (rat, UniProt Q9ERA7 298-582); test: Scatchard on the normal rat pleural cell line 4/4-RM4
T4 sequence: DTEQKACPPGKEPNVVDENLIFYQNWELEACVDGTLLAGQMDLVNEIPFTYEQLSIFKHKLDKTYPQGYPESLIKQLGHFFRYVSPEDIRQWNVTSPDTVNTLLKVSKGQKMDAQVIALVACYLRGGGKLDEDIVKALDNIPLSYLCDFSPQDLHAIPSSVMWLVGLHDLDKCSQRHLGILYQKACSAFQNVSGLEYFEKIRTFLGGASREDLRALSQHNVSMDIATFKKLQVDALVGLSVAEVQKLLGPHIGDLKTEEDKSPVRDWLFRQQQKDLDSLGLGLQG
Experimental: as §1

[5] = biological target: T1, gD epitope-tagged rat mesothelin …; test: Scatchard, 125I-labelled antibody on stably transfected BJAB cells
Experimental: as §1

[6] = biological target: T5, gD epitope-tagged human mesothelin expressed on cells (construct #387) (human, UniProt Q13421 296-580); test: as above
T5 construct: also called gD-human mesothelin; gD-tagged human mesothelin
Experimental: as §1

[7] = biological target: T2, gD epitope-tagged cynomolgus monkey …; test: Scatchard analysis (125I-labelled antibody), row 'Cyno 293', stably transfected cells
Experimental: as §1

[8] = biological target: T3, human mesothelin on cells (endogenous …); test: Scatchard analysis (125I-labelled antibody) on HPAC cells, endogenous mesothelin
Experimental: as §1

[9] = biological target: T2, gD epitope-tagged cynomolgus monkey …; test: Scatchard analysis (125I-labelled antibody), row 'Cyno BJAB', stably transfected cells
Experimental: as §1

[10] = biological target: T3, human mesothelin on cells (endogenous …); test: Scatchard analysis (125I-labelled antibody) on Capan2 cells, endogenous mesothelin
Experimental: as §1

[11] = biological target: T5, gD epitope-tagged human mesothelin …; test: Scatchard, 125I-labelled antibody on stably transfected HT1080 cells
Experimental: as §1

[12] = biological target: T6, gD epitope-tagged mouse mesothelin expressed on cells (construct #385) (mouse, UniProt Q61468 298-582); test: FACS on stably transfected 293 cells
T6 sequence: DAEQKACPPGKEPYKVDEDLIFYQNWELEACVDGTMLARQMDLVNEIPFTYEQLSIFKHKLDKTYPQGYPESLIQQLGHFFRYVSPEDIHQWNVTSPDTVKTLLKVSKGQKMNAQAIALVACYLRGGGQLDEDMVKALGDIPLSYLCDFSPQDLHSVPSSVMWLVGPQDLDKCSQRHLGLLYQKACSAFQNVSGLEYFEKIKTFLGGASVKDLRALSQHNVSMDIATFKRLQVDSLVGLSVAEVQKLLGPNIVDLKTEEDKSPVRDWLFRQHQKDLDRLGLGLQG
Experimental: Monoclonal antibodies were tested to determine if they cross-react with mesothelin from species other than human. […] Shaded residues are identical between at least two species. Unshaded residues differ between at least two of the four species. […] Anti-gD staining verified that mouse mesothelin was indeed expressed.

[13] = biological target: T1, gD epitope-tagged rat mesothelin …; test: Scatchard, 125I-labelled antibody on stably transfected 293 cells
Experimental: as §1

[14] = biological target: T5, gD epitope-tagged human mesothelin …; test: as above
Experimental: as §1

[15] = biological target: T3, human mesothelin on cells (endogenous …); test: Scatchard analysis (125I-labelled antibody) on AsPC1 cells, endogenous mesothelin
Experimental: as §1

[16] = biological target: T3, human mesothelin on cells (endogenous …); test: Scatchard; endogenous human mesothelin on cell lines
Experimental: as §1

[17] = biological target: T2, gD epitope-tagged cynomolgus monkey …; test: Scatchard analysis (125I-labelled antibody), row 'Cyno HT1080', stably transfected cells
Experimental: as §1

[18] = biological target: T3, human mesothelin on cells (endogenous …); test: Scatchard analysis (125I-labelled antibody) on HPAF-II cells, endogenous mesothelin
Experimental: as §1

[19] = biological target: T3, human mesothelin on cells (endogenous …); test: Scatchard analysis (125I-labelled antibody) on OvCar3 cells, endogenous mesothelin
Experimental: as §1

[20] = biological target: T7, E. coli derived recombinant human mesothelin (human, UniProt Q13421 296-580); test: Biacore-2000, IgG over immobilised E. coli derived human mesothelin, 1:1 fit
T7 construct: not shown: N-terminal unizyme His (HQ)-tag
Experimental: (§2) 7D9 variants were expressed as IgG by CHO transient transfection. IgG was purified with protein G affinity chromatography. The affinity of each 7D9 IgG variant for human mesothelin was determined by surface plasmon resonance using a BIACORE™-2000. BIACORE™ research grade CM5 chips were immobilized with approximately 110 RU of E. coli derived recombinant human mesothelin using the amine coupling kit from BIACORE™. […] Each sample was analyzed with 5-minute association and 3.5-minute dissociation. After each injection the chip was regenerated using 10 mM Glycine pH 1.7. Binding response was corrected by subtracting the RU from a flow cell with an irrelevant IgG immobilized at similar density. A 1:1 Languir model of simultaneous fitting of kₒₙ and koff was used for kinetics analysis.

[21] = biological target: T7, E. coli derived recombinant human …; test: SPR (Biacore), IgG over immobilized E. coli derived human mesothelin
Experimental: as §2
The human acceptor framework used for humanization of 7D9 is based on the human VL kappa I consensus (VLKI) and the acceptor VH framework VHATA, which differs from the human VH subgroup III consensus (VHIII) at 3 positions: R71A, N73T, and L78A (Carter et al., Proc. Natl. Acad. Sci. USA 89:4285 (1992)). The VL and VH domains of murine 7D9 were aligned with the human VLKI and VHIII domains; hypervariable regions were identified and grafted into the human acceptor framework to generate 7D9.v1 (FIGS. 4 and 5).

T7 sequence (Q13421 other isoform, or with tags, fused parts or gaps): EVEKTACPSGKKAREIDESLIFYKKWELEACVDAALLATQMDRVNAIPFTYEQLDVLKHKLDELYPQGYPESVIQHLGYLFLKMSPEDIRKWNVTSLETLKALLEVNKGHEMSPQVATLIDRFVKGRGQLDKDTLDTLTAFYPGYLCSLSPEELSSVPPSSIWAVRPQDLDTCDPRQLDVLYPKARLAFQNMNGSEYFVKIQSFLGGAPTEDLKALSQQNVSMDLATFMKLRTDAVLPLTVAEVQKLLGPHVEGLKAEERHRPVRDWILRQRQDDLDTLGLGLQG
T3 sequence (Q13421 other isoform, or with tags, fused parts or gaps): as above
T5 sequence (Q13421 other isoform, or with tags, fused parts or gaps): as above

B1: 22A10 graft (antibody, V domains shown)
VH: EVQLVESGGGLVQPGGSLRLSCAASGFTFSDYFMSWVRQAPGKGLEWVATISNGGTYTYYPDSVKGRFTISRDNSKNTLYLQMNSLRAEDTAVYYCARFDGYYFDYWGQGTLVTVSS
VL: DIQMTQSPSSLSASVGDRVTITCRASQDISNYLNWYQQKPGKAPKLLIYYTSRLHSGVPSRFSGSGSGTDFTLTISSLQPEDFATYYCQQGNTLPYTFGQGTKVEIK
notes: also called hu22A10graft; 22A10 CDR graft
- Kd [1]: 1.9 nM
- Kd [2]: 1 nM

B2: humanized monoclonal antibody 22A10.v83 (antibody, V domains shown)
VH: EVQLVESGGGLVQPGGSLRLSCAASGFTFSDYFMSWVRQAPGKGLEWVATISNGGTYTYYPDSVKGRFTISRDNSKNTLYLQMNSLRAEDTAVYYCARFDGYIFDYWGQGTLVTVSS
VL: DIQMTQSPSSLSASVGDRVTITCRASQDISNYLNWYQQKPGKAPKLLIYYTSRLHSGVPSRFSGSGSGTDFTLTISSLQPEDFATYYCQQGNTLPYTFGQGTKVEIKR
notes: also called h22A10.v83; hu22A10.v83
- Kd [3]: 9 nM
- Kd [4]: 6.2 nM
- Kd [5]: 2.7 nM
- Kd [6]: 1.8 nM
- Kd [7]: 4.3 nM
- Kd [8]: 9.4 nM
- Kd [9]: 1.3 nM
- Kd [10]: 4.2 nM
- Kd [11]: 6.2 nM
- binding result [12]: no binding (tested: 10 µg/ml)
- Kd [13]: 7.3 nM
- Kd [14]: 2.7 nM
- Kd [15]: 9.3 nM
- Kd [16]: 9 to 10 nM
- Kd [17]: 6.4 nM
- Kd [18]: 10.4 nM
- Kd [19]: 9.2 nM
- Kd [2]: 1.3 nM

B3: chimeric 7D9 (antibody, V domains shown)
VH: QVQLQQSGAELAKPGASVKMSCKASGYTFTTYWMHWVKQRPGQGLEWIGYIRPSTGYTEYNQKFKDKATLTADKSSSTAYMQLSSLTSEDSTVYYCARSRWLLDYWGQGTSLTVS
VL: DIMMTQSPSSLAVSAGEKVTMSCKSSQSVLYSSNQKNYLAWFQQKPGQSPKLLIYWASTRESGVPDRFTGSGSGTDFTLTISSVQAEDLAVYFCHQYLSSYTFGGGTKVEIK
notes: also called ch7D9; mu7D9 (formatted as a chimeric 7D9)
- Kd [20]: 1.84 nM

B4: 7D9.v5 (antibody, V domains shown)
VH: EVQLVESGGGLVQPGGSLRLSCAASGYTFTTYWMHWVRQAPGKGLEWVGYIRPSTGYTEYNQKFKDRFTISADTSKNTAYLQMNSLRAEDTAVYYCARSRWLLDYWGQGTLVTVS
VL: DIQMTQSPSSLSASVGDRVTITCKSSQSVLYSSNQKNYLAWFQQKPGKAPKLLIYWASTRESGVPSRFSGSGSGTDFTLTISSLQPEDFATYYCHQYLSSYTFGQGTKVEIK
- Kd [20]: 3.49 nM

B5: 7D9.v1 (antibody, V domains shown)
VH: EVQLVESGGGLVQPGGSLRLSCAASGYTFTTYWMHWVRQAPGKGLEWVGYIRPSTGYTEYNQKFKDRFTISADTSKNTAYLQMNSLRAEDTAVYYCARSRWLLDYWGQGTLVTVS
VL: DIQMTQSPSSLSASVGDRVTITCKSSQSVLYSSNQKNYLAWYQQKPGKAPKLLIYWASTRESGVPSRFSGSGSGTDFTLTISSLQPEDFATYYCHQYLSSYTFGQGTKVEIK
notes: also called direct-graft 7D9.v1
- Kd [20]: 3.98 nM
- fold decrease in affinity relative to mu7D9 (chimeric 7D9) [21]: ~2 fold

B6: 7D9.v6 (antibody, V domains shown)
VH: EVQLVESGGGLVQPGGSLRLSCAASGYTFTTYWMHWVRQAPGKGLEWVGYIRPSTGYTEYNQKFKDRFTISADTSKNTAYLQMNSLRAEDTAVYYCARSRWLLDYWGQGTLVTVS
VL: DIQMTQSPSSLSASVGDRVTITCKSSQSVLYSSNQKNYLAWYQQKPGKAPKLLIYWASTRESGVPSRFSGSGSGTDFTLTISSLQPEDFATYFCHQYLSSYTFGQGTKVEIK
- Kd [20]: 4.08 nM
